T1: human B7-H4 (purified monomeric recombinant human protein, ACRO biosystems) (human, UniProt Q7Z7D3 29-258, limits assumed, chemically biotinylated (EZ-Link NHS-LC-Biotin) in the yeast display and competition experiments; non-biotinylated in SPR)
T1 construct: Bought recombinant monomeric protein; also called B7x; B7S1
T1 sequence: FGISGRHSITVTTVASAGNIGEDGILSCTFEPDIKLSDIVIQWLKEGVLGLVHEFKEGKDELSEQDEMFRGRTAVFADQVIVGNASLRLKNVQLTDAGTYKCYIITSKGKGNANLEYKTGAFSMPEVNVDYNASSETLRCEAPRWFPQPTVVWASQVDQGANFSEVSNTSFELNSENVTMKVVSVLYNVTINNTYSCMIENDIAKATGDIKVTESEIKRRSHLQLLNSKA


Columns and labels:
[1] = target: T1, human B7-H4 (purified monomeric …); experiment: SPR (Carterra LSA); scFv-Fc captured on anti-human IgG Fc, antigen injected
Protocol: (§1) Finally, the affinity of the 24 clones was determined using high-throughput surface plasmon resonance (SPR). The supernatants were arrayed by non-covalent capture in a medium-density SPR chip previously coupled with an anti-human polyclonal antibody and (at least 4 replicates per clone). Non-biotinylated antigen was used for all affinity measurements and sensorgrams were fitted using a pseudo-first-order kinetic model (Lundström 1994). […] In fact, it is notable that the off rates for some of the tested antibodies are probably better than 10⁻⁵ (Table 7), as indicated by the bunching of matured antibodies at that value (Table 7)—such slow off rates are challenging to accurately measure using SPR. No affinity difference was observed between clones coming from one combo library versus the other.
(§2) The scFv from the final population (round 3, combo libraries) was bulk cloned into a yeast expression vector containing a human IgG1 Fc region to be expressed in the scFv-Fc format. For this, the scFv region was amplified by PCR, digested with BssHII and NheI restriction enzyme (New England Biolabs), and cloned into the pDNL9 vector, 92 clones were analyzed by Sanger sequencing and 24 of these plus the parental were expressed using S. cerevisiae strain YVH10 (ATCC MYA-4940). scFv-Fc fusions were expressed for 72 h at 20° C. in the presence of galactose. The Carterra LSA surface resonance system was used for the affinity measurements. Briefly, anti-Human IgG Fc (Southern Biotech, #2048-01) was covalently coupled to an HC30M chip following the manufacturer's protocols. Crude yeast supernatants containing the scFv-Fc fusions were arrayed on the chip.

[2] = target: T1, human B7-H4 (purified monomeric …); experiment: SPR (Carterra LSA); scFv-Fc captured on anti-human IgG Fc, antigen injected; asterisk: reached minimum allowed dissociation rate
Protocol: as §1, §2

Binder | KD fold-improvement [1] | Kd [1] | kon [1] | koff [2] | koff [1]
Parental (H6.1) scFv-Fc (scFv, V domains shown, Expressed with the 24 clones as scFv-Fc fusion (human IgG1 Fc) in yeast for SPR; also called parental antibody; parental molecule) VH: EVQLVESGGGVVQPGRSLRLSCAASGFTFSSYSMNWVRQAPGKGLEWVSAISGSGGSTYYADSVKGRFTISRDNSKNTLYLQMNSLRAEDTAVYYCARKRWYGMDVWGQGTTVTVSS VL: SYELTQPPSVSVAPGKTARITCGGNNIGSKSVHWYQQKPGQAPVLVVYDDSDRPSGIPERFSGSNSGNTATLTISRVEAGDEADYYCQVWDSRTYVFGTGTKLTVL | 1 fold over parental | 7.43 nM | 450000 M⁻¹ s⁻¹ |  | 0.0033 s⁻¹
A12 scFv-Fc (scFv, V domains shown, Tested as scFv-Fc fusion (human IgG1 Fc, vector pDNL9) in crude yeast supernatant; Combo 2 library) VH: EVQLVESGGGVVQPGRSLRLSCAASGFTFDNRAMNWVRQAPGKGLEWVSAISSSGSTMYYADSVKGRFTISRDNSKNTLYLQMNSLRAEDTAVYYCARKRWYGMDVWGQGTTVTVSS VL: SYELTQPPSVSVAPGKTARITCGGNNIGSKSVHWYQQKPGQAPVLVVYDDSDRPSGIPERFSGSNSGNTATLTISRVEAGDEADYYCQVWDSRTYVFGTGTKLTVL | 53 fold over parental | 0.139 nM | 230000 M⁻¹ s⁻¹ |  | 3.2e-05 s⁻¹
A07 scFv-Fc (scFv, V domains shown, Tested as scFv-Fc fusion (human IgG1 Fc, vector pDNL9) in crude yeast supernatant; Combo 2 library) VH: EVQLVESGGGVVQPGRSLRLSCAASGFTFSSRSMNWVRQAPGKGLEWVSAISGSGSTVYYADSVKGRFTISRDNSKNTLYLQMNSLRAEDTAVYYCARKRWYGMDVWGQGTTVTVSS VL: SYELTQPPSVSVAPGKTARITCGGNNIGSKSVHWYQQKPGQAPVLVVYDDSDRPSGIPERFSGSNSGNTATLTISRVEAGDEADYYCQVWDSRTYVFGTGTKLTVL | 27 fold over parental | 0.277 nM | 170000 M⁻¹ s⁻¹ |  | 4.7e-05 s⁻¹

Now those with a lower Kd [1], led by results:

KD fold-improvement [1] | Kd [1] | kon [1] | koff [2] | koff [1] | Binder
109 fold over parental | ≤ 0.068 nM | 150000 M⁻¹ s⁻¹ | ≤ 1e-05 s⁻¹ |  | B05 scFv-Fc (scFv, V domains shown, Tested as scFv-Fc fusion (human IgG1 Fc, vector pDNL9) in crude yeast supernatant; Combo 1 library) VH: EVQLVESGGGVVQPGRSLRLSCAASGLTFSSRAMNWVRQAPGKGLEWVSAISGTGATTYYADSVKGRFTISRDNSKNTLYLQMNSLRAEDTAVYYCARKRWYGMDVWGQGTTVTVSS VL: SYELTQPPSVSVAPGKTARITCGGNNIGSKMVHWYQQKPGQAPVLVVYDDSDRPSGIPERFSGSNSGNTATLTISRVEAGDEADYYCQVWDRGMIFGTGTKLTVL
64 fold over parental | 0.116 nM | 260000 M⁻¹ s⁻¹ |  | 2.9e-05 s⁻¹ | B10 scFv-Fc (scFv, V domains shown, Tested as scFv-Fc fusion (human IgG1 Fc, vector pDNL9) in crude yeast supernatant; Combo 2 library) VH: EVQLVESGGGVVQPGRSLRLSCAASGFTFSTRAMNWVRQAPGKGLEWVSAISGTGDTTYYADSVKGRFTISRDNSKNTLYLQMNSLRAEDTAVYYCARKRWYGMDVWGQGTTVTVSS VL: SYELTQPPSVSVAPGKTARITCGGNNIGSKSVHWYQQKPGQAPVLVVYDDSDRPSGIPERFSGSNSGNTATLTISRVEAGDEADYYCQVWGRYQMIFGTGTKLTVL
127 fold over parental | 0.059 nM | 180000 M⁻¹ s⁻¹ |  | 1.1e-05 s⁻¹ | B02 scFv-Fc (scFv, V domains shown, Tested as scFv-Fc fusion (human IgG1 Fc, vector pDNL9) in crude yeast supernatant; Combo 1 library) VH: EVQLVESGGGVVQPGRSLRLSCAASGFTFSSRSMNWVRQAPGKGLEWVSAISGSGSTVYYADSVKGRFTISRDNSKNTLYLQMNSLRAEDTAVYYCARKRWYGMDVWGQGTTVTVSS VL: SYELTQPPSVSVAPGKTARITCGGNNIGVKSVHWYQQKPGQAPVLVVYDDSDRSPGIPERFSGSNSGNTATLTISRVEAGDEADYYCQVWDSRTYVFGTGTKLTVL
231 fold over parental | ≤ 0.032 nM | 310000 M⁻¹ s⁻¹ | ≤ 1e-05 s⁻¹ |  | B01 scFv-Fc (scFv, V domains shown, Tested as scFv-Fc fusion (human IgG1 Fc, vector pDNL9) in crude yeast supernatant; Combo 1 library) VH: EVQLVESGGGVVQPGRSLRLSCAASGFTFSDRAMNWVRQAPGKGLEWVSAISYEGRTQYYADSVKGRFTISRDNSKNTLYLQMNSLRAEDTAVYYCARKRWYGMDVWGQGTTVTVSS VL: SYELTQPPSVSVAPGKTARITCGGNNIGVKSVHWYQQKPGQAPVLVVYDDSDRPSGIPERFSGSNSGNTATLTISRVEAGDEADYYCQVWDSRTYVFGTGTKLTVL

— patent US20240309095A1 (Incyte, published 2024)
